One block for each substance: values may come before it.
How the values were obtained:
[1] = biological target: biotinylated human N1 ectodomain fragment containing EGF repeats 6–15 (human) (UniProt P46531); test: BLI; BLItz instrument; biotinylated Notch1 fragment loaded on streptavidin biosensors, dipped into ligand samples of varying concentration until equilibrium; HBS-P buffer with 0.005% surfactant P20 and 5 mM CaCl2; equilibrium curves fitted with a one site specific binding model
[2] = biological target: Notch1 expressed in N1rep ES cells (UniProt Q01705)
Sequence of Notch1 expressed in N1rep ES cells (Q01705 19-2531): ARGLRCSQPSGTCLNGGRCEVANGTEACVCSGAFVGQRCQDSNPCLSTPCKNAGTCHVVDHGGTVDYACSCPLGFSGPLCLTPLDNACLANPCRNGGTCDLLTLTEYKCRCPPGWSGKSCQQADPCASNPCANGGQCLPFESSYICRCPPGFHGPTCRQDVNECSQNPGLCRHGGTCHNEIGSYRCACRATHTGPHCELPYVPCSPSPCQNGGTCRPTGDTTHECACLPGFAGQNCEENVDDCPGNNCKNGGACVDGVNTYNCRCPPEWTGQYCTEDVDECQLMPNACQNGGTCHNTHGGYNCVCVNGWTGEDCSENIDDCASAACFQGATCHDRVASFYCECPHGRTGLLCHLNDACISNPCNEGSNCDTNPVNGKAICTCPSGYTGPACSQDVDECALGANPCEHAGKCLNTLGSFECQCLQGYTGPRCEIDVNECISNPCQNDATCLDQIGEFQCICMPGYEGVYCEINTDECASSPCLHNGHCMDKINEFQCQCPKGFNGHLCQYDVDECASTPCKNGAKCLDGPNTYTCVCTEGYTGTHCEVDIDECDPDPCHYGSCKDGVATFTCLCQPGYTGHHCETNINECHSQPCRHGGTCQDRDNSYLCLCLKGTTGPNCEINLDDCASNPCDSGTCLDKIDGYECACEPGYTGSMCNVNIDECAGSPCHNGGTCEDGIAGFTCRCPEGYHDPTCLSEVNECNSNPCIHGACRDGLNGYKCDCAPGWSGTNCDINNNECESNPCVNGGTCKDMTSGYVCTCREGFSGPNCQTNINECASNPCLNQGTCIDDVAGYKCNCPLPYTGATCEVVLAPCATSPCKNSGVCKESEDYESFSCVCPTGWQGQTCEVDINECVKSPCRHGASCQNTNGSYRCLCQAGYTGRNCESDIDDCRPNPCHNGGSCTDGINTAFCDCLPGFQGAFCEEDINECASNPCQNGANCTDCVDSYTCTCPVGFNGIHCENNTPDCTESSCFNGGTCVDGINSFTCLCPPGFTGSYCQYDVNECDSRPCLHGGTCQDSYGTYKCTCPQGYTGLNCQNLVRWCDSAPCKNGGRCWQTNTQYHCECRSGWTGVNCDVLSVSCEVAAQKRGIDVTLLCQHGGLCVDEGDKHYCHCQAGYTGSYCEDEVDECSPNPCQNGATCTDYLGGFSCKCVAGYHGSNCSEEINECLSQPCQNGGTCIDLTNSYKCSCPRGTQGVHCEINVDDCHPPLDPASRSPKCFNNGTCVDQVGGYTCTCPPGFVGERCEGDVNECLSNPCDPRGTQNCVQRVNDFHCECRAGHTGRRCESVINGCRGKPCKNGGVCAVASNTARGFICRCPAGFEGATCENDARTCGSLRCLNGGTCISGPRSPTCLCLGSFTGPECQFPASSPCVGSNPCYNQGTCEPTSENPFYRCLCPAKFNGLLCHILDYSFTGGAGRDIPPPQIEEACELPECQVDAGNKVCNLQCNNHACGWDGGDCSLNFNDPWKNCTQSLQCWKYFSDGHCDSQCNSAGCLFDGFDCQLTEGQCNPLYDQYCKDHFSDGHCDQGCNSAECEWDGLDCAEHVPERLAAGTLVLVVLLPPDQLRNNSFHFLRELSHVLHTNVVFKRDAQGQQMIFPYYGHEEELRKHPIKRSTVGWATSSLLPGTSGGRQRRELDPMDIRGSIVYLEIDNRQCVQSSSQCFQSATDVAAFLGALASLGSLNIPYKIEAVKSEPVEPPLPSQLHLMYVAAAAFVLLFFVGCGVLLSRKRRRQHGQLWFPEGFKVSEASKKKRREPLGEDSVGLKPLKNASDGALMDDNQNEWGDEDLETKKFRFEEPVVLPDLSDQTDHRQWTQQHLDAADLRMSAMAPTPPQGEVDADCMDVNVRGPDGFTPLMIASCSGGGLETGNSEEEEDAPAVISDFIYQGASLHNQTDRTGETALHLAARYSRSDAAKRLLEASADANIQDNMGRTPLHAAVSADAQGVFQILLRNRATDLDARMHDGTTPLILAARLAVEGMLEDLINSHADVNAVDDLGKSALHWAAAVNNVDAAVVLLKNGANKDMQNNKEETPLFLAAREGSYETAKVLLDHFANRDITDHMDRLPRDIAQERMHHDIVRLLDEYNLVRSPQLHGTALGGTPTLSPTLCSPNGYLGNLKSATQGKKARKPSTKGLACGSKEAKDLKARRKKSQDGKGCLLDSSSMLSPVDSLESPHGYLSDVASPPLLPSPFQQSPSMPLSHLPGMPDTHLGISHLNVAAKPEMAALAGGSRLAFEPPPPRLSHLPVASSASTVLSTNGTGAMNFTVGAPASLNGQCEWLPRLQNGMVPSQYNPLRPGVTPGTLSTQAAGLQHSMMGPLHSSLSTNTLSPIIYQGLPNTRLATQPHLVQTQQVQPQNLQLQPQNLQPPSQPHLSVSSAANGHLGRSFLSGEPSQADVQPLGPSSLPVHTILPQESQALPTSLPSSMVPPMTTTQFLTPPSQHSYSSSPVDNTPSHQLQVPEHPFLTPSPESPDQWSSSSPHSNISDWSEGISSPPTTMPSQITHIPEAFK

[3] = biological target: Notch1 expressed in N1rep ES cells (UniProt Q01705); remark: listed apart in the source
[4] = biological target: Notch2 expressed in N2rep ES cells (UniProt O35516)

Sequence of mDLL4 (mouse DLL4, full length, expressed on ES cells) (Q9JI71 27-686): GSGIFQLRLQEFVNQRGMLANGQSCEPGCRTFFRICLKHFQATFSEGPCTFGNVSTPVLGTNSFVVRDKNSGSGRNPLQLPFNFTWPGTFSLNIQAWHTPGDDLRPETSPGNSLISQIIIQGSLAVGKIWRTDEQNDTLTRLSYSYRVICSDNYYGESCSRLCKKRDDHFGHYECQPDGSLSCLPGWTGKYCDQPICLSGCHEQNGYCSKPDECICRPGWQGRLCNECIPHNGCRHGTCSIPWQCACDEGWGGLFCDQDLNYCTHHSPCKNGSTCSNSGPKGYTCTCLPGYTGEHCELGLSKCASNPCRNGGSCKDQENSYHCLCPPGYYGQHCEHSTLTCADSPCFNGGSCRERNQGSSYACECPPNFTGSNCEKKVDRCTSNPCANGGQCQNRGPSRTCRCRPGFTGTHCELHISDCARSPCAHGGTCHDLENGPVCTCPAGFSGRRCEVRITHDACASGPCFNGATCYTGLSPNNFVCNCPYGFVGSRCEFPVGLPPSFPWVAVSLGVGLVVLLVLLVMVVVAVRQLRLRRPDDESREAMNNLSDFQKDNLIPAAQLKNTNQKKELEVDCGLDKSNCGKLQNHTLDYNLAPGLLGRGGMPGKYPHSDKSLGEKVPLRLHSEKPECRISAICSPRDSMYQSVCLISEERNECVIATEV
Sequence of biotinylated human N1 ectodomain fragment containing EGF repeats 6–15 (human) (P46531 216-604): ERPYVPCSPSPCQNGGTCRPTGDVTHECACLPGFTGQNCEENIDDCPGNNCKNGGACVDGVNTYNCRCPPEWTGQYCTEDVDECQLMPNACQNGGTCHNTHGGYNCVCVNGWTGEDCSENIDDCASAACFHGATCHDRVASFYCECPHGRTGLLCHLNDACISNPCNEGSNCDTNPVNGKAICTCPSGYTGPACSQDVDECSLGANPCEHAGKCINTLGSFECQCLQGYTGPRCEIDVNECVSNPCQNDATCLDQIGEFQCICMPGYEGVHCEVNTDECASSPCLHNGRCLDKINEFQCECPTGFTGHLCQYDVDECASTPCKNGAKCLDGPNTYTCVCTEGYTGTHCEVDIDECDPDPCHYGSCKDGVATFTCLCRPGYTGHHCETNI
Sequence of mDLL1 (mouse DLL1, full length, expressed on ES cells) (Q61483 18-722): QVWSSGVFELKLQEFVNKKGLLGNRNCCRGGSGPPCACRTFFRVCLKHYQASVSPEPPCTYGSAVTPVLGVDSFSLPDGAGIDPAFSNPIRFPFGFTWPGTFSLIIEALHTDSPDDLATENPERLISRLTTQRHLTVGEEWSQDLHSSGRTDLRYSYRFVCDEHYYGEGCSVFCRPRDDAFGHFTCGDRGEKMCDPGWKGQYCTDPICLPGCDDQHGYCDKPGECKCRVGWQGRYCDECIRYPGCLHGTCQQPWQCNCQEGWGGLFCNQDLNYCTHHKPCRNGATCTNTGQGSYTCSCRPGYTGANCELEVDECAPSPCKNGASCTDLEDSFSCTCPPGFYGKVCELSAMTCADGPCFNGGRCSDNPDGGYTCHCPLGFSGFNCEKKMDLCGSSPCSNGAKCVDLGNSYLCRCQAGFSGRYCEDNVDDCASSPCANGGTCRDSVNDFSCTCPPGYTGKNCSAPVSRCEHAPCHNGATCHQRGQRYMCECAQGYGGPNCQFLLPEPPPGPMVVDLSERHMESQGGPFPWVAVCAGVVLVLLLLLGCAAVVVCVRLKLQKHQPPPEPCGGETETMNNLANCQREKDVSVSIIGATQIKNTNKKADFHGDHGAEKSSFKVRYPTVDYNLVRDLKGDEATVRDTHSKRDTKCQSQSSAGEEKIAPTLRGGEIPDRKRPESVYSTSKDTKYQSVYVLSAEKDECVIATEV

Substance: D4contD1 (DLL4 N-terminus through EGF5 with the N1 contact amino acids of the MNNL and DSL domains replaced by those of DLL1) (domain or fragment)
- Kd [1]: 0.327 µM

Substance: mDLL4 (mouse DLL4, full length, expressed on ES cells) (from UniProt Q9JI71 27-686) (ligand)
- luciferase Notch reporter in N1rep ES cells co-cultured with ligand-expressing ES cells; activation by DLL4 as fold of activation by DLL1, non-normalized [3]: 12.5 fold of DLL1
- luciferase Notch reporter in N1rep ES cells co-cultured with ligand-expressing ES cells; activation by DLL4 normalized to DLL1 activation and corrected for protein expression and cell surface levels [3]: 9.42 fold of DLL1
- luciferase Notch reporter in N2rep ES cells co-cultured with ligand-expressing ES cells; activation by DLL4 as fold of activation by DLL1, non-normalized [4]: 0.468 fold of DLL1
- luciferase Notch reporter in N2rep ES cells co-cultured with ligand-expressing ES cells; activation by DLL4 normalized to DLL1 activation and corrected for protein expression and cell surface levels [4]: 0.35 fold of DLL1

Next, values leading:

- Kd [1]: 0.326 µM
Substance: D1contD4 (DLL1 N-terminus through EGF5 with the N1 contact amino acids of the MNNL and DSL domains replaced by those of DLL4) (domain or fragment)

- Kd [1]: 0.341 µM
Substance: D4^N109G (DLL4 N-terminus through EGF5 with the N109G mutation) (from UniProt Q9JI71 27-686) (domain or fragment)

- luciferase Notch reporter in N1rep ES cells co-cultured with DLL1-expressing ES cells, against the basal signal with E14 ES cells [2]: 10 fold
Substance: mDLL1 (mouse DLL1, full length, expressed on ES cells) (from UniProt Q61483 18-722) (ligand)

Source: article PMC6202052
